# From US20100056392A1, “MICROSTRUCTURE AND MICRODOMAIN MICROARRAYS, METHODS OF MAKING SAME AND USES THEREOF” (priority 2005, published 2010)
# {AminoPEG9} = amino group attached through a PEG9 spacer, used for covalent surface attachment
# Assays:
# [1] = biological target: T1, transcription factor GAL80 (Saccharomyces cerevisiae, UniProt P04387); conditions: template peptide of the array; cited from earlier work
# T1 sequence (P04387 1-435): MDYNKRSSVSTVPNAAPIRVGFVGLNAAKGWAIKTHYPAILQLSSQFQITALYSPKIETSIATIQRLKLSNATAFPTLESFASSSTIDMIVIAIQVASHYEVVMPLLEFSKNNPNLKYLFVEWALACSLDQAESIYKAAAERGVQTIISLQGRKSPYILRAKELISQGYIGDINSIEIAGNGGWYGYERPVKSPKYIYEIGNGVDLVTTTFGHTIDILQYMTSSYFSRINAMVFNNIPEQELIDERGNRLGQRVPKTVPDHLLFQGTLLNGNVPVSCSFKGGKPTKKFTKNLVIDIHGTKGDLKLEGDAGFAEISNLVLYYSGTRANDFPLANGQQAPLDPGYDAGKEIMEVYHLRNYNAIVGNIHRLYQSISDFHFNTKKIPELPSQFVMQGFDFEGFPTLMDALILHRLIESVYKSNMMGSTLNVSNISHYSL
# [2] = biological target: T2, transcription factor AP-1 (c-JUN) (Homo sapiens, UniProt P05412); test: rhAP1 binding to DNA grafted polymer microstructures, in situ trypsin digest and MALDI-MS peptide mass fingerprinting; conditions: rhAP1 0.3 ug/ml 1:1 with buffer Z, 0.5 hrs at RT and 2 hrs at 4 C; identified by MALDI-MS, not in control
# T2 construct: purchased Promega Corp (Madison, Wis.)
# T2 sequence (P05412 whole entry): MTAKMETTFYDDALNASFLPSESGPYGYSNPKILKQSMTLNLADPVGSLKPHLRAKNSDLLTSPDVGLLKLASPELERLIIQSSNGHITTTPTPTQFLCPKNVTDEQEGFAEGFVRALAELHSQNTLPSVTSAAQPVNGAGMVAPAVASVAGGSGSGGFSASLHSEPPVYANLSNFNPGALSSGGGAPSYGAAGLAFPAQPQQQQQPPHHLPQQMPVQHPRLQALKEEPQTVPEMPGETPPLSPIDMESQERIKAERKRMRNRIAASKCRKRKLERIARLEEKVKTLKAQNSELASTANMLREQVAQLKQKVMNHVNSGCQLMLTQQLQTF
# Description: This array was then washed with sterile water and a 1:1 mixture of rhAP1 protein 0.3 μg/ml and buffer Z (25 mM HEPES K+ pH 7.8, 12.5 mM MgCl2, 1 μM DTT, 20% glycerol, 0.1 Nonidet p40) and 2 μL was spotted onto all 5 microstructures. This was allowed to bind for 0.5 hrs at RT and 2 hrs at 4 C and then rinsed with sterile water at 4° C. The fluorescence was rechecked and the treatment spots were still fluorescent. 2 μL of a 1:100 dilution of 10 μg/mL trypsin in 25 mM ammonium carbonate and sterile water was spotted onto one feature and the array was left at 37° C. overnight.
# A slightly subsaturated solution of α-cyano-4-hydroxycinnamic acid solution of 1:2 acetonitrile:water with 1% TFA was spotted, 2 μL per feature on to the array and left in hybridization chamber for 45 min. This was then dried and spotted with 1 μL of a saturated solution of α-cyano-4-hydroxycinnamic acid in 1:1 acetonitile:water with 0.1% TFA. […] Ions were only detected coming from the trypsin digest array element.
# This array was then washed with sterile water and a 1:1 mixture of rhAP1 protein 0.3 ug/ml and buffer Z (25 mM HEPES K+ pH 7.8, 12.5 mM MgCl2, 1 uM DTT, 20% glycerol, 0.1 Nonidet p40) and 2 uL was spotted onto all 5 microstructures. […] The fluorescence was rechecked and the treatment spots were still fluorescent. […]
Molecule,binding to transcription factor GAL80 [1],binding of transcription factor AP-1 to immobilized consensus DNA [2]
"EGEWTEGKLSLR [template for 8,000 array variants substituted at positions 1, 3, 6]",known to bind,
"Consensus DNA: covalently bound DNA containing three repeats of the consensus sequence for the transcription factor AP-1 (c-JUN), hybridized to Texas Red complement (nucleic acid, DNA, 5' {AminoPEG9}, backbone not given here; further chemistry not fully specified) DNA: CGCTTGATGAGTCAGCCGGAACGCTTGATGAGTCAGCCGGAACGCTTGATGAGTCAGCCGGAAGCTTCCGGTAAATTT",,bind the transcription factor AP-1
